# Molecular target: MBP-tagged ADD domain of DNMT3A (476-614) (human, UniProt Q9Y6K1 476-614)
# Test: peptide or protein array
binder,measurement,value
"EKSPGKLLVKMPFQT [TRD 214–228 peptide (WT, 15mer, E214-T228)]",binding result,binds

# Source: PMC9798253 (Protein Science : A Publication of the Protein Society, 2023)
